Several values for one entry are separate records, joined by “and”; a condition that tells them apart may be missing. Identical values can stand only once.
Experiments:
[1] = biological target: T1, DLL4 ECD/His tag (R&D 1506-D4-050) (UniProt Q9NR61 27-529); assay: direct bind ELISA, DLL4 on plate; DLL4 VD C-term.; HC Short, LC Long
T1 construct: extracellular domain; Bought antigen coated on the ELISA plate; not shown: His tag

[2] = biological target: T2, ErbB3 (ErbB3/FC Chimera-His tag) (UniProt P21860 20-643, limits assumed); assay: SPR (Biacore); parent antibody
T2 construct: extracellular domain
Procedure: (§1) The BIACORE assay (Biacore, Inc, Piscataway, N.J.) determines the affinity of antibodies or DVD-Ig with kinetic measurements of on-rate and off-rate constants. Binding of antibodies or DVD-Ig to a target antigen (for example, a purified recombinant target antigen) is determined by surface plasmon resonance-based measurements with a Biacore® 1000 or 3000 instrument (Biacore® AB, Uppsala, Sweden) using running HBS-EP (10 mM HEPES [pH 7.4], 150 mM NaCl, 3 mM EDTA, and 0.005% surfactant P20) at 25° C. […] For example, approximately 5000 RU of goat anti-mouse IgG, (Fcγ), fragment specific polyclonal antibody (Pierce Biotechnology Inc, Rockford, Ill.) diluted in 10 mM sodium acetate (pH 4.5) is directly immobilized across a CM5 research grade biosensor chip using a standard amine coupling kit according to manufacturer's instructions and procedures at 25 μg/ml. Unreacted moieties on the biosensor surface are blocked with ethanolamine. Modified carboxymethyl dextran surface in flowcell 2 and 4 is used as a reaction surface. Unmodified carboxymethyl dextran without goat anti-mouse IgG in flow cell 1 and 3 is used as the reference surface. For kinetic analysis, rate equations derived from the 1:1 Langmuir binding model are fitted simultaneously to association and dissociation phases of all eight injections (using global fit analysis) with the use of Biaevaluation 4.0.1 software. Purified antibodies or DVD-Ig are diluted in HEPES-buffered saline for capture across goat anti-mouse IgG specific reaction surfaces. Antibodies or DVD-Ig to be captured as a ligand (25 μg/ml) are injected over reaction matrices at a flow rate of 5 μl/min. The association and dissociation rate constants, kₒₙ (M⁻¹s⁻¹) and koff (s⁻¹) are determined under a continuous flow rate of 25 μl/min. Rate constants are derived by making kinetic binding measurements at different antigen concentrations ranging from 10-200 nM. The equilibrium dissociation constant (M) of the reaction between antibodies or DVD-Igs and the target antigen is then calculated from the kinetic rate constants by the following formula: KD=koff/kₒₙ. Binding is recorded as a function of time and kinetic rate constants are calculated.

IGF-2 = biological target: T3, IGF-2 (UniProt P01344 25-91); assay: Biacore SPR
T3 construct: Bought reagent
Procedure: as §1

[3] = biological target: human DLL4 extracellular domain (human, UniProt Q9NR61 27-529); assay: cell-based or functional assay
DLL ECD His tag = biological target: T4, DLL ECD His tag (UniProt Q9NR61 27-529, limits assumed); assay: Biacore SPR
T4 construct: extracellular domain; Bought reagent; also called DLL4; DLL-4; not shown: His tag

Placental GF = biological target: T5, Placental GF (UniProt P49763-2 21-149, limits assumed); assay: Biacore SPR
T5 construct: Bought reagent; also called PlGF; PLGF
T5 sequence (looked up): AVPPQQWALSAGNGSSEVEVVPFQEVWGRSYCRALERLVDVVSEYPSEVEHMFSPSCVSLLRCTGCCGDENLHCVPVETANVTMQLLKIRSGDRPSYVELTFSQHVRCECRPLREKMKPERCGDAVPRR
Procedure: as §1

[4] = biological target: recombinant human VEGF165 (human, UniProt P15692-4 27-191); assay: cell-based or functional assay
recombinant human VEGF165, sequence (P15692 other isoform, or with tags, fused parts or gaps limits assumed): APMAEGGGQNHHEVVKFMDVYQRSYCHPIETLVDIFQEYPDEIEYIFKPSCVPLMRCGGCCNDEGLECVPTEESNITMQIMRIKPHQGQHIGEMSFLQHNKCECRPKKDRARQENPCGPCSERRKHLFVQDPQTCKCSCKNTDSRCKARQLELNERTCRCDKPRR

MSP Receptor ECD-His tag = biological target: T6, MSP Receptor ECD-His tag (UniProt Q04912 25-957, limits assumed); assay: Biacore SPR
T6 construct: extracellular domain; Bought reagent; also called RON; not shown: His tag

HGF = biological target: T7, HGF (UniProt P14210 32-728); assay: Biacore SPR
T7 construct: Bought reagent
T7 sequence (P14210 32-728 limits assumed): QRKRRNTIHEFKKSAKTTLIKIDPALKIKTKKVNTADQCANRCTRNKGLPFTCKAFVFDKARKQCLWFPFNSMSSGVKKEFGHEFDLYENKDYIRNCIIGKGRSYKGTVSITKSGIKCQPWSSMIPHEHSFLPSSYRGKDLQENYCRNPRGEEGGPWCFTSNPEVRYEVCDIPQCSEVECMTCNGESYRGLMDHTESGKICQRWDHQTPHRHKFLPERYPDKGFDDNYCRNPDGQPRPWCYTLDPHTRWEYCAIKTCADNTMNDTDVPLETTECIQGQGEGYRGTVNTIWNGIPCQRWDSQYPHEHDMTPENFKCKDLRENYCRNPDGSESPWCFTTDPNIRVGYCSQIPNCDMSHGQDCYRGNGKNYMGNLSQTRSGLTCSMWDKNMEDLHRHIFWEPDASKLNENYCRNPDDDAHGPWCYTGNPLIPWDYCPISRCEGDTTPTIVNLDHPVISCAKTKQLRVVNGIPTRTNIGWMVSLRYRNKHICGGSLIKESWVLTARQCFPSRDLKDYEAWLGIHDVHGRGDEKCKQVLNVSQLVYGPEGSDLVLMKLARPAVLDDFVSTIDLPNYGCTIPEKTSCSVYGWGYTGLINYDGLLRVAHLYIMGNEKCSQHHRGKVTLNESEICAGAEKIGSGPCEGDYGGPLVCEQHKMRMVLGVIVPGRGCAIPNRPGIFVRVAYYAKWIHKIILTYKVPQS
Procedure: as §1

B1: DVD510 (bispecific antibody, human IgG1, kappa)
heavy: not shown
light: DIQMTQSPSSLSASVGDRVTITCRASQVIRRSLAWYQQKPGKAPKLLIYAASNLASGVPSRFSGSGSGTDFTLTISSLQPEDFATYYCQQSNTSPLTFGQGTKVEIKRTVAAPSVFIFPPDIQMTQSSSYLSVSLGGRVTITCKASDHINNWLAWYQQKPGNAPRLLISGATSLETGVPSRFSGSGSGKDYTLSITSLQTEDVATYYCQQYWSIPLTFGAGTKLELKRTVAAPSVFIFPPSDEQLKSGTASVVCLLNNFYPREAKVQWKVDNALQSGNSQESVTEQDSKDSTYSLSSTLTLSKADYEKHKVYACEVTHQGLSSPVTKSFNRGEC
notes: DVD-Ig; outer AB071 (VEGF), inner AB072 (DLL4); HC short, LC long linker; also called DVD510H; DVD510L
[1]
  EC50: 420 pM

B2: AB062 (antibody, human IgG1, kappa, V domains shown)
VH: QVQLQQWGAGLLKPSETLSLTCAVYGGSFSGYYWSWIRQPPGKGLEWIGEINHSGSTNYNPSLKSRVTISVETSKNQFSLKLSSVTAADTAVYYCARDKWTWYFDLWGRGTLVTVSS
VL: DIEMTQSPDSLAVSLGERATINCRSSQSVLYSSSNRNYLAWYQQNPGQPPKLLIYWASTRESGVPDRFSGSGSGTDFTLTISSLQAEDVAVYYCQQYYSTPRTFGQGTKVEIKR
notes: also called AB062VH; AB062VL
[2]
  Kd: 1360 pM
  koff: 0.000117 s⁻¹
  kon: 86600 M⁻¹ s⁻¹

B3: AB063 (antibody, human IgG1, kappa, V domains shown)
VH: EVQLVESGGGLVQPGGSLRLSCAASGFTFSIYSMNWVRQAPGKGLEWVSYISSSSSTIYYADSVKGRFTISRDNAKNSLYLQMNSLRDEDTAVYYCARDRGDFDAFDIWGQGTMVTVSS
VL: DIQMTQSPSSLSASVGDRVTITCQASQDITNYLNWYQQKPGKAPKLLIYDASNLETGVPSRFSGSGSGTDFTFTISSLQPEDIATYNCQQCENFPITFGQGTRLEIKR
notes: also called AB063VH; AB063VL
[2]
  Kd: 150 pM
  koff: 0.000175 s⁻¹
  kon: 1.17e+06 M⁻¹ s⁻¹

B4: DVD041 (bispecific antibody, human IgG1, lambda)
heavy: not shown
light: DIQMTQSPSSLSASVGDRVTITCSASQDISNYLNWYQQKPGKAPKVLIYFTSSLHSGVPSRFSGSGSGTDFTLTISSLQPEDFATYYCQQYSTVPWTFGQGTKVEIKRTVAAPQSVLTQPPSVSAAPGQKVTISCSGSSSNIENNHVSWYQQLPGTAPKLLIYDNNKRPSGIPDRFSGSKSGTSATLGITGLQTGDEADYYCETWDTSLSAGRVFGGGTKLTVLGQPKAAPSVTLFPPSSEELQANKATLVCLISDFYPGAVTVAWKADSSPVKAGVETTTPSKQSNNKYAASSYLSLTPEQWKSHRSYSCQVTHEGSTVEKTVAPTECS
notes: N-terminal VD VEGF, C-terminal VD IGF1,2; also called DVD041H; DVD041L
IGF-2
  Kd: < 12.4 pM
  koff: < 1e-06 s⁻¹
  kon: 80900 M⁻¹ s⁻¹

B5: AB015 (antibody, human IgG1, kappa)
heavy: not shown
light: DIQMTQSPSSLSASVGDRVTITCRASQDVSTAVAWYQQKPGKAPKLLIYSASFLYSGVPSRFSGSGSGTDFTLTISSLQPEDFATTYYCQQSYTGTVTFGQGTKVEIKRTVAAPSVFIFPPSDEQLKSGTASVVCLLNNFYPREAKVQWKVDNALQSGNSQESVTEQDSKDSTYSLSSTLTLSKADYEKHKVYACEVTHQGLSSPVTKSFNRGEC
[3]
  Soluble Flt1 Assay, % of Neutralization @ 9.2 nM Ab: 75.2%
  Soluble Flt1 Assay, % of Neutralization @ 27.7 nM Ab: 78.7%
  Soluble Flt1 Assay, % of Neutralization @ 83.3 nM Ab: 86.6%

B6: AB015 (antibody, human IgG1, kappa)
heavy: not shown
light: DIQMTQSPSSLSASVGDRVTITCRASQDVSTAVAWYQQKPGKAPKLLIYSASFLYSGVPSRFSGSGSGTDFTLTISSLQPEDFATTYYCQQSYTGTVTFGQGTKVEIKRTVAAPSVFIFPPSDEQLKSGTASVVCLLNNFYPREAKVQWKVDNALQSGNSQESVTEQDSKDSTYSLSSTLTLSKADYEKHKVYACEVTHQGLSSPVTKSFNRGEC
DLL ECD His tag
  Kd: 414 pM
  koff: 0.000166 s⁻¹
  kon: 400000 M⁻¹ s⁻¹

B7: AB047 (antibody, human IgG1, kappa, V domains shown)
VH: QVQLQQSGAELVKPGASVKISCKASGYTFTDYYINWVKLAPGQGLEWIGWIYPGSGNTKYNEKFKGKATLTIDTSSSTAYMQLSSLTSEDTAVYFCVRDSPFFDYWGQGTLLTVSS
VL: DIVLTQSPDSLAVSLGERVTMNCKSSQSLLNSGMRKSFLAWYQQKPGQSPKLLIYWASTRESGVPDRFTGSGSGTDFTLTISSVQAEDVAVYYCKQSYHLFTFGSGTKLEIKR
Placental GF
  Kd: 28.4 pM
  koff: 0.000108 s⁻¹
  kon: 3.8e+06 M⁻¹ s⁻¹

B8: DVD534 (bispecific antibody, human IgG1, kappa, lambda, L234A L235A)
heavy: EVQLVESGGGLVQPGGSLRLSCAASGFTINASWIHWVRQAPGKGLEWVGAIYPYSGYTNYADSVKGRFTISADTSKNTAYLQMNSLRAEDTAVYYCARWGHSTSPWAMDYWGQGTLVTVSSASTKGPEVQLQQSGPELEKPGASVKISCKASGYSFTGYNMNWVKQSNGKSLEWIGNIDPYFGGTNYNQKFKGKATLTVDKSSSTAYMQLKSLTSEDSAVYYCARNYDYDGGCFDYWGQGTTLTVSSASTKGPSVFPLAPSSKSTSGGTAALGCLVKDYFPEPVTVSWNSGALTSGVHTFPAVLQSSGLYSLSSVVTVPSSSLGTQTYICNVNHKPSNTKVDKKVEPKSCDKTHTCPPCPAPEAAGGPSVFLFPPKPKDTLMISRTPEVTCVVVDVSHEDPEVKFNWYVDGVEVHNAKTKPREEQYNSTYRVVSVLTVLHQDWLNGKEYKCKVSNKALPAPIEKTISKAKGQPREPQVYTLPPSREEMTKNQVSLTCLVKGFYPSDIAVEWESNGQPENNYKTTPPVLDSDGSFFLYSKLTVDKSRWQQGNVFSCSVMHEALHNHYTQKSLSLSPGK
light: DIQMTQSPSSLSASVGDRVTITCRASQVIRRSLAWYQQKPGKAPKLLIYAASNLASGVPSRFSGSGSGTDFTLTISSLQPEDFATYYCQQSNTSPLTFGQGTKVEIKRTVAAPSVFIFPPQAVVTQESALTTSPGETVTLTCRSSTGAVTTSNYANWVQEKPDHLFTGLIGGTNNRAPGVPARFSGSLIGDKAALTITGAQTEDEAIYFCALWYSNHWVFGGGTKLTVLGQPKAAPSVTLFPPSSEELQANKATLVCLISDFYPGAVTVAWKADSSPVKAGVETTTPSKQSNNKYAASSYLSLTPEQWKSHRSYSCQVTHEGSTVEKTVAPTECS
notes: DVD-Ig; outer AB071 (VEGF), inner AB073 (DLL4); HC short, LC long linker; also called DVD534H; DVD534L
[1]
  EC50: 470 pM

B9: DVD043 (bispecific antibody, human IgG1, kappa)
heavy: not shown
light: DIQMTQSPSSLSASVGDRVTITCSASQDISNYLNWYQQKPGKAPKVLIYFTSSLHSGVPSRFSGSGSGTDFTLTISSLQPEDFATYYCQQYSTVPWTFGQGTKVEIKRTVAAPDIQMTQSPSSLSASVGDRVTITCRASQDVSTAVAWYQQKPGKAPKLLIYSASFLYSGVPSRFSGSGSGTDFTLTISSLQPEDFATTYYCQQSYTGTVTFGQGTKVEIKRTVAAPSVFIFPPSDEQLKSGTASVVCLLNNFYPREAKVQWKVDNALQSGNSQESVTEQDSKDSTYSLSSTLTLSKADYEKHKVYACEVTHQGLSSPVTKSFNRGEC
[4]
  % inhibition of HUVEC proliferation at 0.67 nM: -22%
  % inhibition of HUVEC proliferation at 6.7 nM: 51%
  % inhibition of HUVEC proliferation at 67 nM: 89%
[3]
  Soluble Flt1 Assay, % of Neutralization @ 9.2 nM Ab: 1.1%
  Soluble Flt1 Assay, % of Neutralization @ 27.7 nM Ab: 50.3%
  Soluble Flt1 Assay, % of Neutralization @ 83.3 nM Ab: 57.9%

B10: DVD043 (bispecific antibody, human IgG1, kappa)
heavy: not shown
light: DIQMTQSPSSLSASVGDRVTITCSASQDISNYLNWYQQKPGKAPKVLIYFTSSLHSGVPSRFSGSGSGTDFTLTISSLQPEDFATYYCQQYSTVPWTFGQGTKVEIKRTVAAPDIQMTQSPSSLSASVGDRVTITCRASQDVSTAVAWYQQKPGKAPKLLIYSASFLYSGVPSRFSGSGSGTDFTLTISSLQPEDFATTYYCQQSYTGTVTFGQGTKVEIKRTVAAPSVFIFPPSDEQLKSGTASVVCLLNNFYPREAKVQWKVDNALQSGNSQESVTEQDSKDSTYSLSSTLTLSKADYEKHKVYACEVTHQGLSSPVTKSFNRGEC
notes: N-terminal VD VEGF, C-terminal VD DLL4; also called DVD043H; DVD043L
DLL ECD His tag
  Kd: 2320 pM
  koff: 0.000217 s⁻¹
  kon: 93700 M⁻¹ s⁻¹

B11: DVD033 (bispecific antibody, human IgG1, kappa)
heavy: not shown
light: DVVMTQSPLSLPVTPGEPASISCRSSQSLLHSNGFNYVDWYLQKPGQSPHLLIYFGSYRASGVPDRFSGSGSGTDFTLKISRVEAEDVGVYYCMQALQTPPWTFGQGTKVEIRRTVAAPDIQMTQSPSSVSASVGDRVTITCRASQGISSWLAWYQQKPGKAPNLLIYEASSLQSGVPSRFGGSGSGTDFTLTISSLQPEDFATYYCQQANGFPWTFGQGTKVEIKRTVAAPSVFIFPPSDEQLKSGTASVVCLLNNFYPREAKVQWKVDNALQSGNSQESVTEQDSKDSTYSLSSTLTLSKADYEKHKVYACEVTHQGLSSPVTKSFNRGEC
notes: N-terminal VD RON, C-terminal VD HGF; also called DVD033H; DVD033L
MSP Receptor ECD-His tag
  Kd: 7600 pM
  koff: 0.00118 s⁻¹
  kon: 156000 M⁻¹ s⁻¹
HGF
  Kd: 310 pM
  koff: 9.2e-05 s⁻¹
  kon: 297000 M⁻¹ s⁻¹

B12: DVD047 (bispecific antibody, human IgG1, kappa)
heavy: not shown
light: DIQMTQSPSSLSASVGDRVTITCSASQDISNYLNWYQQKPGKAPKVLIYFTSSLHSGVPSRFSGSGSGTDFTLTISSLQPEDFATYYCQQYSTVPWTFGQGTKVEIKRTVAAPDVVMTQSPLSLPVTPGEPASISCRSSQSLLHSNGFNYVDWYLQKPGQSPHLLIYFGSYRASGVPDRFSGSGSGTDFTLKISRVEAEDVGVYYCMQALQTPPWTFGQGTKVEIRRTVAAPSVFIFPPSDEQLKSGTASVVCLLNNFYPREAKVQWKVDNALQSGNSQESVTEQDSKDSTYSLSSTLTLSKADYEKHKVYACEVTHQGLSSPVTKSFNRGEC
[4]
  % inhibition of HUVEC proliferation at 0.67 nM: -5%
  % inhibition of HUVEC proliferation at 6.7 nM: 31%
  % inhibition of HUVEC proliferation at 67 nM: 65%

B13: AB005 (antibody, human IgG1, kappa, V domains shown)
VH: EVQLVQSGGGLVKPGGSLRLSCAASGFTFSSYAMHWVRQAPGKGLEWVAVISYDGSNKYYADSVKGRFTISRDNSKNTLYLQMNSLRAEDTAVYYCARFSGWPNNYYYYGMDVWGQGTTVTVSS
VL: DVVMTQSPLSLPVTPGEPASISCRSSQSLLHSNGFNYVDWYLQKPGQSPHLLIYFGSYRASGVPDRFSGSGSGTDFTLKISRVEAEDVGVYYCMQALQTPPWTFGQGTKVEIRR
MSP Receptor ECD-His tag
  Kd: 20200 pM and 20100 pM
  koff: 0.000739 s⁻¹
  kon: 36600 M⁻¹ s⁻¹

B14: DVD258 (bispecific antibody, human IgG1, kappa)
heavy: not shown
light: DIVLTQSPDSLAVSLGERVTMNCKSSQSLLNSGMRKSFLAWYQQKPGQSPKLLIYWASTRESGVPDRFTGSGSGTDFTLTISSVQAEDVAVYYCKQSYHLFTFGSGTKLEIKRTVAAPDIQMTQSPSSLSASVGDRVTITCRASQDVSTAVAWYQQKPGKAPKLLIYSASFLYSGVPSRFSGSGSGTDFTLTISSLQPEDFATTYYCQQSYTGTVTFGQGTKVEIKRTVAAPSVFIFPPSDEQLKSGTASVVCLLNNFYPREAKVQWKVDNALQSGNSQESVTEQDSKDSTYSLSSTLTLSKADYEKHKVYACEVTHQGLSSPVTKSFNRGEC
notes: N-terminal VD PlGF, C-terminal VD DLL4; also called VD258H; VD258L
Placental GF
  Kd: < 254 pM
  koff: 0.00254 s⁻¹
  kon: > 1e+07 M⁻¹ s⁻¹

Reference: US20100260668A1 (published 2010)
